Assays:
human IL-1β-hFc = target: T1, human IL-1β-hFc (human, UniProt P01584 117-269, limits assumed); assay: competition ELISA on coated IL-1β-hFc, competitor IL-1R1(1-332)-his; 4-parameter fit
T1 construct: also called human IL-1f3-hFc [sic]; not shown: human IgG Fc purification tag

human IL-1β-His-Bio [1] = target: T2, human IL-1β-His-Bio (human, UniProt P01584 117-269, limits assumed, biotinylated with EZ-Link Sulfo-NHS-LC-Biotinylation Kit (sites not given)); assay: ELISA, IL-1β-His-Bio captured on streptavidin; antibody 0.012 µg/mL
T2 construct: also called biotinylated human IL-1β-His; not shown: His tag

human IL-1β-His-Bio [2] = target: T2, human IL-1β-His-Bio; assay: ELISA, IL-1β-His-Bio captured on streptavidin; 4-parameter fit
Experimental: A plate was coated with 50 μL of 2 μg/mL SA (streptavidin) in each well, and incubated overnight at 4° C. After the plate was washed once and the residual liquid was removed, each well was blocked with 300 μL of 1% BSA solution (dissolved in PBS) and the plate was incubated at 37° C. for 2 h. The plate was washed three times and the residual liquid was removed. Human IL-1β-His-Bio in each well was diluted with 50 μL of PBST to 0.2 μg/mL, and the plate was incubated at 37° C. for 30 min. Then the plate was washed three times and the residual liquid was removed. […] Two duplicate wells were set for the above concentrations, with a final volume of 100 μL per well, and the plate was incubated at 37° C. for 30 min. […] After the plate was washed four times and the residual liquid was removed, 50 μL of TMB chromogenic solution was added to each well for color developing for 5 min away from light at room temperature, then 50 μL of stop solution was added to each well to stop the reaction. Then the plate was put into a plate reader immediately, and the OD value of each well in the plate was read at 450 nm.
SoftMax Pro 6.2.1 software was used to analyze and process the data. 4-parameter fitted curves were plotted using the antibody concentration as the abscissa and the absorbance as the ordinate.

EC50 (human IL-1β-hFc): 137 pM
OD (450 nm) (human IL-1β-His-Bio [1]): 1.23 OD450
EC50 (human IL-1β-His-Bio [2]): 99 pM
B1: anti-IL-1β murine monoclonal antibody 3H6 (antibody, V domains shown)
VH: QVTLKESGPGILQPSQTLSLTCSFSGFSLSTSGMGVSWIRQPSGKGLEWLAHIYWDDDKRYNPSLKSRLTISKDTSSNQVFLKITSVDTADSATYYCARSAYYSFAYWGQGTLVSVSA
VL: DIVMTQSHKFMSTSVGGRVRITCKASQDVDTDVAWFQQKPGQSPKLLIYWASTRHTGVPDRFTGSGSGTDFTLTISNVQSEDLADYFCQQYSSYPTFGAGTKLELK
notes: Mouse monoclonal antibody purified from hybridoma supernatant on protein A; also called antibody secreted by hybridoma cell line LT010 (IL-1β-3H6), CCTCC NO: C2018133
